One block for each binder: values may come before it.
Tests used:
[1] = target: T1, full length chicken N-cadherin with the N-terminus extended by two glycine residues (GG) expressed on K562 … (chicken, UniProt P10288 165-912); experiment: adhesion of K562 transfectants to coated N-cadherin Fc
T1 construct: whole, on cells; also called cells expressing the GG N-terminal extension mutant; K562 GG
T1 sequence: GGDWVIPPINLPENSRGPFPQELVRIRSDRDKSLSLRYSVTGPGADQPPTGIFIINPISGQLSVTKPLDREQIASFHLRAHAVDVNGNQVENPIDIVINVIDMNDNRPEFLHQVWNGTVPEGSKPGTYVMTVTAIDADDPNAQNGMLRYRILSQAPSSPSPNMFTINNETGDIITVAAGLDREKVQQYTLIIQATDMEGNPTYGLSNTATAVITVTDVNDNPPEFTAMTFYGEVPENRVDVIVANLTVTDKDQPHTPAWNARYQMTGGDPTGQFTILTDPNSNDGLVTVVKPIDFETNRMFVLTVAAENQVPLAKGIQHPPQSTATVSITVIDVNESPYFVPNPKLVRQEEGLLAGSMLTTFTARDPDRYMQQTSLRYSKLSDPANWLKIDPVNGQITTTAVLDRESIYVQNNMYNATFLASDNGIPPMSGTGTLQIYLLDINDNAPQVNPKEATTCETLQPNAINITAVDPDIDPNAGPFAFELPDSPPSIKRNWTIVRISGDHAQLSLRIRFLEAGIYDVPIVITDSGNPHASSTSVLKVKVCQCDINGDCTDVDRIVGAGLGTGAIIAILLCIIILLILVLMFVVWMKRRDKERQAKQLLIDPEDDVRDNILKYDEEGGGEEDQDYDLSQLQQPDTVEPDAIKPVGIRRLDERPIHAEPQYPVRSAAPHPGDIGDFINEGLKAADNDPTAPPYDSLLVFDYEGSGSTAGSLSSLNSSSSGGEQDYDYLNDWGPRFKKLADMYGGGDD
In short: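 K562 (or L) cells transfected with wild-type or mutant N-cadherin settled 45 min at 37 °C onto N-cadherin Fc coated at 1 µg/ml. After non-adherent cells were washed off, bound cells were quantified by acid phosphatase activity. Values are % cells adhering ± SEM, quadruplicate.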

[2] = target: T2, mouse N-cadherin on L cells after removal of the prodomain with trypsin (mouse, UniProt P15116 160-906); experiment: adhesion of trypsin-treated L cell transfectants to coated N-cadherin Fc
T2 construct: whole, on cells; Removal of the prodomain was almost complete by western blot; also called L cells after treatment; trypsin-treated L cell transfectants
T2 sequence (looked up): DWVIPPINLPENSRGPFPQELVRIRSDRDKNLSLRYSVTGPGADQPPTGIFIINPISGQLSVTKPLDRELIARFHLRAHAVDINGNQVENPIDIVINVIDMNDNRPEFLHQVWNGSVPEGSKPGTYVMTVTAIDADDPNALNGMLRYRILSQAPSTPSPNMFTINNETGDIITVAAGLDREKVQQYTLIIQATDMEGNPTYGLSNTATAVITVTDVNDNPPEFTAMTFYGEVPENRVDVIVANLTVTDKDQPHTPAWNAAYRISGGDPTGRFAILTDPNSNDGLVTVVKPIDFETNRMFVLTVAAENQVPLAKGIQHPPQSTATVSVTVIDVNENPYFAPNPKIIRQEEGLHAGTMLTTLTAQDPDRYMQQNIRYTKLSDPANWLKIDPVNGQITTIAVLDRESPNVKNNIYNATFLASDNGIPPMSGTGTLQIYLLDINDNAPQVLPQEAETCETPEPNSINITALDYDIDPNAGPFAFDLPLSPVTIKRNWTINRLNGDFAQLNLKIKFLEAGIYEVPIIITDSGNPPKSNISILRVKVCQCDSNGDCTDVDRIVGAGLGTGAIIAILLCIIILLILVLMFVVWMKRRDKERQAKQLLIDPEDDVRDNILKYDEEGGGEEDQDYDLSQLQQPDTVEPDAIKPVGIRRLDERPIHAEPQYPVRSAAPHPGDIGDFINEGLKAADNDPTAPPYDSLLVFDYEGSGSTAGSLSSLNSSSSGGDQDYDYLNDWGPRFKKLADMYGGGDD
Method: Adhesion tests were conducted substantially as described in Example 1. Briefly, K562 Cells or L cells transfected with wild type or mutant N-cadherin were allowed to settle for 45 minutes at 37° C. onto N-cadherin Fc fusion proteins coated at 1 μg/ml to a 96 well plate. Non-adherent cells were then washed off and residual adherent cells were quantitated by measuring acid phosphatase activity. Assays were conducted in quadruplicate and results are expressed as % cells adhering +/−SEM.
L cells expressing mouse N-cadherin with an uncleaved prodomain (see Koch et al., 2004) were obtained from Dr Weisong Shan (Montreal Neurological Institute). The normal furin cleavage site, RQKR, had been replaced with a Factor Xa site, IEGR, to give the correct N-terminus after digestion. […] L cells suspended in HBSS containing 0.1% BSA were treated with 0.01% trypsin (Sigma, Type XI) in the presence of 2 mM Ca²⁺ for 10 minutes at 37° C. and the digestion was then quenched with soyabean trypsin inhibitor, 0.5 mg per ml (Sigma, Type I-S). Cells were then washed and tested for adhesion to N-cadherin Fc-fusion protein. To check for complete removal of the prodomain, the cells were lysed in SDS sample buffer and the cadherin analysed by SDS PAGE under reducing conditions on a 4-12% gradient gel. […]

B1: chicken N-cadherin-Fc fusion protein with the mutation D134A, dimeric (Fc fusion, UniProt P10288 165-728, looked up)
chain: DWVIPPINLPENSRGPFPQELVRIRSDRDKSLSLRYSVTGPGADQPPTGIFIINPISGQLSVTKPLDREQIASFHLRAHAVDVNGNQVENPIDIVINVIDMNDNRPEFLHQVWNGTVPEGSKPGTYVMTVTAIAADDPNAQNGMLRYRILSQAPSSPSPNMFTINNETGDIITVAAGLDREKVQQYTLIIQATDMEGNPTYGLSNTATAVITVTDVNDNPPEFTAMTFYGEVPENRVDVIVANLTVTDKDQPHTPAWNARYQMTGGDPTGQFTILTDPNSNDGLVTVVKPIDFETNRMFVLTVAAENQVPLAKGIQHPPQSTATVSITVIDVNESPYFVPNPKLVRQEEGLLAGSMLTTFTARDPDRYMQQTSLRYSKLSDPANWLKIDPVNGQITTTAVLDRESIYVQNNMYNATFLASDNGIPPMSGTGTLQIYLLDINDNAPQVNPKEATTCETLQPNAINITAVDPDIDPNAGPFAFELPDSPPSIKRNWTIVRISGDHAQLSLRIRFLEAGIYDVPIVITDSGNPHASSTSVLKVKVCQCDINGDCTDVDRIVGAGLGT
notes: extracellular domain; also called D134A mutant; N-cadherin Fc mutant D134A; not shown: hinge region, CH2 and CH3 domains of human IgG1 heavy chain (vector pIgSig)
binding result [1]: no binding (tested: Fc fusion protein coated at 1 µg/ml)

binding result [2]: binds
B2: wild type chicken N-cadherin-Fc fusion protein, dimeric (linked by disulphide bonds at the Ig hinge region) (Fc fusion, UniProt P10288 165-729, looked up)
chain: DWVIPPINLPENSRGPFPQELVRIRSDRDKSLSLRYSVTGPGADQPPTGIFIINPISGQLSVTKPLDREQIASFHLRAHAVDVNGNQVENPIDIVINVIDMNDNRPEFLHQVWNGTVPEGSKPGTYVMTVTAIDADDPNAQNGMLRYRILSQAPSSPSPNMFTINNETGDIITVAAGLDREKVQQYTLIIQATDMEGNPTYGLSNTATAVITVTDVNDNPPEFTAMTFYGEVPENRVDVIVANLTVTDKDQPHTPAWNARYQMTGGDPTGQFTILTDPNSNDGLVTVVKPIDFETNRMFVLTVAAENQVPLAKGIQHPPQSTATVSITVIDVNESPYFVPNPKLVRQEEGLLAGSMLTTFTARDPDRYMQQTSLRYSKLSDPANWLKIDPVNGQITTTAVLDRESIYVQNNMYNATFLASDNGIPPMSGTGTLQIYLLDINDNAPQVNPKEATTCETLQPNAINITAVDPDIDPNAGPFAFELPDSPPSIKRNWTIVRISGDHAQLSLRIRFLEAGIYDVPIVITDSGNPHASSTSVLKVKVCQCDINGDCTDVDRIVGAGLGTG
notes: extracellular domain; also called dimeric N-cadherin-Fc; wild type N-cadherin; not shown: hinge region, CH2 and CH3 domains of human IgG1 heavy chain (vector pIgSig)

— patent US20080274950A1 (BABRAHAM INSTITUTE, published 2008)
